In PMC7587174, “ACE Inhibitory Activity and Molecular Docking of Gac Seed Protein Hydrolysate Purified by HILIC and RP-HPLC” (Molecules, 2020):
Like-named read-outs stand apart in the source and are kept apart here. Residues, ends and D or L forms follow the SMILES beside them. No end group written: not given here.

Legend:
[1] = target: angiotensin I-converting enzyme (ACE) (Homo sapiens, UniProt P12821); experiment: In vitro ACE inhibitory assay (HHL substrate, RP-HPLC detection); type: biochemical; settings: synthetic peptides, purity >95%; HHL substrate 2.5 mM (30 µL), ACE 0.05 mU/µL (20 µL), pre-incubation 37 °C 5 min, incubation 37 °C 30 min; HPLC-UV 228 nm; non-linear regression, nine concentrations, repeated three times; read-out: IC50 of synthetic peptides against ACE
Sequence of angiotensin I-converting enzyme (ACE) (P12821 30-1306, species assumed): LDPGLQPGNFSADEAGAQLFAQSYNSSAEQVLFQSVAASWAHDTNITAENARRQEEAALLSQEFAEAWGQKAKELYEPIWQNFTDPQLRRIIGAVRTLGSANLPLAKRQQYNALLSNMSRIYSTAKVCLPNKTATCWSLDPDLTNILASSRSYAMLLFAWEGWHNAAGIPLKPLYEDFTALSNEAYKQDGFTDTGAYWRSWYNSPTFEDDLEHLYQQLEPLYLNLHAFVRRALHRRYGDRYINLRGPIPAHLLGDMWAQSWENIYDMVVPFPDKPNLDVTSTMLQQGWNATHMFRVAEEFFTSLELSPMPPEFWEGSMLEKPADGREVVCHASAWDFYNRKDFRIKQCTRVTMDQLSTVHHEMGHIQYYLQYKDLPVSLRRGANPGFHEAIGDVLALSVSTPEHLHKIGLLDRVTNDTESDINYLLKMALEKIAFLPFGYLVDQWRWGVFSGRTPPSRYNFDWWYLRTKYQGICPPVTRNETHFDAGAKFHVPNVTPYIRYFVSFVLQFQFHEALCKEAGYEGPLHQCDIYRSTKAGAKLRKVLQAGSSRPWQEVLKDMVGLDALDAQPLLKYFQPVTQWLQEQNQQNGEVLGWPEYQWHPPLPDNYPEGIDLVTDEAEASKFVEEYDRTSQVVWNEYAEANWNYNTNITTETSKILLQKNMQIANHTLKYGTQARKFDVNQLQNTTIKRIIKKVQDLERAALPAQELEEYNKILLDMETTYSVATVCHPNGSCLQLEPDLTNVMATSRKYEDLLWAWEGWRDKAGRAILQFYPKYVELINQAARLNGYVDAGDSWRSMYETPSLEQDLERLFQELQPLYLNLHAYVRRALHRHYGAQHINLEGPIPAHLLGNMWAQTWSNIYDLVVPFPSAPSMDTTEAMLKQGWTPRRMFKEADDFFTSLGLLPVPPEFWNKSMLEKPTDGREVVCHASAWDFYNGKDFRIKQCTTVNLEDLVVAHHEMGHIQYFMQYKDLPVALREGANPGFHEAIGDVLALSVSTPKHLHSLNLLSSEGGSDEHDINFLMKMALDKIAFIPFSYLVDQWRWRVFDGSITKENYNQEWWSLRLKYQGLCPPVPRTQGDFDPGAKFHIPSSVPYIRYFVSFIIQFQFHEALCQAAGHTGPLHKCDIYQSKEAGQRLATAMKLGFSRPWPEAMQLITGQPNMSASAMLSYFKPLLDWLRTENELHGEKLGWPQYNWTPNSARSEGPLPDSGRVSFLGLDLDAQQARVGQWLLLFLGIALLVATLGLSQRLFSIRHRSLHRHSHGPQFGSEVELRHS
Procedure: The method to determine the ACE inhibitory activity of gac seeds peptides hydrolysate was adapted according to a previous report with slight modification. Briefly, the sample dissolved in ddH2O (10 µL) was added to 2.5 mM hippuryl-L-histidyl-L-leucine (30 µL). Borate buffer (10 µL) was used as blank solution. In total, 50 µM Captopril (10 µL) was used as positive control. The samples, blank, and positive control were incubated at 37 °C for 5 min. Then, 0.05 mU/µL of ACE (20 µL) was added into each solution. The reaction mixture was incubated at 37 °C for 30 min and mixed in a shaker incubator at 200 rpm for 30 min. The reaction was stopped by adding 1 N HCl (60 µL). After, 0.25 mg/mL ferulic acid (10 µL) was added as an internal standard. Samples were centrifuged (Hitachi Koki Co., Ltd., Tokyo, Japan) at 15,000 rpm for 2 min. The samples were separated by RP-HPLC using a C18 column (4.6 mm × 250 mm, particle size 5 µm) (Macherey-Nagel, Duren, Germany). Samples were selected using an isocratic gradient of 95% solvent A and […] solvent B at a flow rate of 1 mL/min. Solvent A was prepared by 5% acetonitrile + 0.1% trifluoroacetic acid and solvent B was prepared by 95% acetonitrile + 0.1% trifluoroacetic acid. Absorbance was measured using a UV detector at 228 nm. ACE inhibitory activity (%) was examined in triplicate and calculated according to the following equation:ACE-inhibitory activity (%) = [1 − (ΔAinhibition)/(ΔAcontrol)] × 100%, where ΔAinhibition and ΔAcontrol are the peak areas in the sample with or without inhibitor.
The definition of IC50 is the peptide concentration required to inhibit 50% of angiotensin-converting enzyme. The IC50 was calculated using non-linear regression of the ACE inhibitory activity (%) from nine different concentrations. This assay was repeated three times for each experiment.

[2] = target: T1, ACE (Homo sapiens, UniProt P12821); experiment: Kinetics of ACE inhibition (Lineweaver-Burk plot); type: biochemical; settings: with increasing ALVY concentration
T1 sequence (P12821 30-1306, species assumed): as above
Procedure: Kinetics of ACE inhibition was determined by a previous method with some modifications. The hydrolysis rate of HHL by ACE over a range of HHL concentrations of 0.005, 0.1, 0.5, 1, and 2 mM was measured while varying the concentrations of ALVY. The modes of ACE inhibition were determined from Lineweaver-Burk plots while inhibition parameters (Vmax and Km) were calculated, respectively, as the Y- and X-axis intercepts of the primary plot.

[3] = target: T1, ACE; parameters: method as in 6 sources, ref 38 = [38]; PMID 31264418; doi:10.1021/acs.jafc.9b01922; 38. Shih Y.H. Chen F.A. Wang L.F. Hsu J.L. Discovery and study of novel antihypertensive peptides derived from cassia obtusifolia seeds J. Agric. Food Chem. 2019 67 7810 7820 10.1021/acs.jafc.9b01922 ||| ref 39 = [39]; PMID 26948626; doi:10.1016/j.foodchem.2016.02.097; 39. Gangopadhyay N. Wynne K. O’Connor P. Gallagher E. Brunton N.P. Rai D.K. Hayes M. In silico and in vitro analyses of the angiotensin-I converting enzyme inhibitory activity of hydrolysates generate ||| ref 40 = [40]; PMID 26344130; doi:10.1016/j.jprot.2015.08.018; 40. Priyanto A.D. Doerksen R.J. Chang C.-I. Sung W.-C. Widjanarko S.B. Kusnadi J. Lin Y.-C. Wang T.-C. Hsu J.-L. Screening, discovery, and characterization of angiotensin-I converting enzyme inhibitor ||| ref 41 = [41]; PMID 29112398; doi:10.1021/acs.jafc.7b04522; 41. Orio L.P. Boschin G. Recca T. Morelli C.F. Ragona L. Francescato P. Arnoldi A. Speranza G. New ACE-inhibitory peptides from hemp seed ( Cannabis sativa L.) proteins J. Agric. Food Chem. 2017 65 10 ||| ref 42 = [42]; PMID 21381782; doi:10.1021/jf104998s; 42. Yang R. Zou Y. Yu N. Gu Z. Accumulation and identification of angiotensin-converting enzyme inhibitory peptides from wheat germ J. Agric. Food Chem. 2011 59 3598 3605 10.1021/jf104998s 21381782 ||| ...; settings: cited from earlier work
[4] = target: Angiotensin I-converting enzyme (UniProt P12821)
Sequence of Angiotensin I-converting enzyme (P12821 30-1306): as the sequence (P12821 30-1306, species assumed) above

| IC50 of ACE inhibitory activity (hydrolysis of hippuryl-L-histidyl-L-leucine by ACE, 37 °C, RP-HPLC read-out at 228 nm; synthetic peptide, nine concentrations) [4] | Molecule | IC50 [1] | further results |
| --- | --- | --- | --- |
| – | CC(C)C[C@H](NC(=O)[C@H](C)N)C(=O)N[C@H](C(=O)N[C@@H](Cc1ccc(O)cc1)C(=O)O)C(C)C [ALVY] (H-ALVY-OH) | 7.03 ± 0.09 µM | Effect on Km [2]: increased with the increasing peptide concentration |
| – | CC(C)C[C@H](NC(=O)[C@@H](N)CC(C)C)C(=O)N[C@H](C(=O)N[C@@H](Cc1ccc(O)cc1)C(=O)O)C(C)C [LLVY] (H-LLVY-OH) | 87.8 ± 3.37 µM | – |
| – | FHAPWK [peptide from Cassia obtusifolia seeds] | – | IC50 ([3]; Cassia obtusifolia seeds, read-out: IC50 (Cassia obtusifolia seeds peptide)): 16.8 µM |
| – | LLAPHY [LLAPHY] | 15.9 ± 0.52 µM | – |
| – | LSTSTDVR-OH [LSTSTDVR] | > 167 µM | – |
| – | VSGAGRY [peptide from bitter melon seeds] | – | IC50 ([3]; bitter melon seeds, read-out: IC50 (bitter melon seeds peptide)): 8.6 µM |
| 15.9 µM | LLAPHY | – | – |
| 87.8 µM | LLVY | – | – |
| 7.03 µM | ALVY | – | – |
| > 167 µM | LSTSTDVR | – | – |
